# Measurements from patent publication US20140328797A1.
# B1: TCN-711 (6893_E11) (antibody, human IgG1, lambda, V domains shown)
# VH: QVQLHQWGTGVLKPSGTLSLTCGVYGGSLTDFYWTWIRQSPARGLEWLGEIDRDGATYYNPSLKSRITISIDTSKKQFSLNLRSVTAADRAVYYCARRPMLRGVWGNFRSNWFDPWGQGTQVTVSS
# VL: QSVLTQPPSVSAAPGQKVSISCSGSSSNIGYSYVSWYQQVPGSAPKLLIYENNKRPSGIPDRFSASKSGTSATLDITGLQTGDEADYYCGTWDTRLFGGVFGGGTKLTVLG
# Molecular target: HRV-A and B strains tested
# Assay: binding to HRV; format not stated in this example
binder,measurement,value
B1,EC50,0.007 to 0.07 nM
